The data set concerns thrombin-activatable fibrinolysis inhibitor (TAFI), purified.

For the substance “E-WE thrombin (E. coli derived, non-glycosylated W215A/E217A thrombin)”, the “activated TAFI, measured as hippuric acid generated from hippuryl-arginine (absorbance at 382 nm)” value is “E-WE thrombin is a poor activator of TAFI”.
